The values below come from US20040223972A1 (FUNCTIONAL GENETICS, published 2004).

A word on the Kd: it is the equilibrium constant for the complex coming apart.

The assay deals with biotinylated peptide Bio-….

B1: purified TSG101 protein that contains only the UEV domain, Q99816 1-145 (protein)
chain: MAVSESQLKKMVSKYKYRDLTVRETVNVITLYKDLKPVLDSYVFNDGSSRELMNLTGTIPVPYRGNTYNIPICLWLLDTYPYNPPICFVKPTSSMTIKTGKHVDANGKIYLPYLHEWKHPQSDLLGLIQVMIVVFGDEPPVFSRP
The molecule B1 returned a Kd of 2000 nM.
